# Results published in the supplement of paper PMC9112550, “Optimization of the antimicrobial peptide Bac7 by deep mutational scanning” (BMC Biology, 2022).
# System: Escherichia coli TOP10
# Experiment: shrunken log2 fold change of peptide-encoding DNA abundance (4.5 h post-induction vs induction); higher = less antimicrobial activity (less host growth inhibition)
# Conditions: time post-induction: 4.5 h; library: site-saturation at positions 5, 18, 19, 20
# 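Further: peptides expressed intracellularly from a pBAD plasmid library in pooled LB shake-flask culture, induced with 0.3% L-arabinose, DNA abundance read by NGS, three biological replicates, DESeq2 with apeglm shrinkage.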
row,Sequence,shrunken log2 fold change
1,RRIRERPPRLPRPRPRPHYIPRP,-0.133
2,RRIRNRPPRLPRPRPRPGAGPRP,0.234
3,RRIRQRPPRLPRPRPRPLYYPRP,0.614
4,RRIRGRPPRLPRPRPRPKDDPRP,0.293
5,RRIRTRPPRLPRPRPRPQLNPRP,-0.33
6,RRIRKRPPRLPRPRPRPHGTPRP,-0.0973
7,RRIRERPPRLPRPRPRPNDSPRP,-0.0224
8,RRIRPRPPRLPRPRPRPAVPPRP,0.1
9,RRIRIRPPRLPRPRPRPGDFPRP,-0.162
10,RRIRMRPPRLPRPRPRPIILPRP,-0.0572
11,RRIRCRPPRLPRPRPRPCIRPRP,-0.145
12,RRIRYRPPRLPRPRPRPDQNPRP,-0.269
13,RRIRNRPPRLPRPRPRPQVTPRP,-0.134
14,RRIRLRPPRLPRPRPRPPVDPRP,0.539
15,RRIRVRPPRLPRPRPRPEPYPRP,-0.2
16,RRIRPRPPRLPRPRPRPCSFPRP,-0.109
17,RRIRQRPPRLPRPRPRPGQSPRP,-0.0203
18,RRIRLRPPRLPRPRPRPVFPPRP,0.263
19,RRIRNRPPRLPRPRPRPWGEPRP,0.157
20,RRIRMRPPRLPRPRPRPLIDPRP,0.356
21,RRIRTRPPRLPRPRPRPPIVPRP,-0.175
22,RRIRMRPPRLPRPRPRPRMTPRP,1.84
23,RRIRLRPPRLPRPRPRPGWPPRP,0.406
24,RRIRIRPPRLPRPRPRPPMSPRP,-0.288
25,RRIRLRPPRLPRPRPRPHHGPRP,-0.0757

row,Sequence,shrunken log2 fold change
1,RRIRTRPPRLPRPRPRPKQLPRP,0.23
2,RRIRMRPPRLPRPRPRPGNVPRP,-0.0105
3,RRIRPRPPRLPRPRPRPMHVPRP,0.038
4,RRIRTRPPRLPRPRPRPEPDPRP,0.286
5,RRIRDRPPRLPRPRPRPCLWPRP,0.218
6,RRIRQRPPRLPRPRPRPWGNPRP,0.0303
7,RRIRHRPPRLPRPRPRPWAKPRP,-0.235
8,RRIRKRPPRLPRPRPRPRLDPRP,0.624
9,RRIRVRPPRLPRPRPRPGMSPRP,0.303
10,RRIRGRPPRLPRPRPRPKMDPRP,0.738
11,RRIRSRPPRLPRPRPRPQIIPRP,-0.226
12,RRIRMRPPRLPRPRPRPGRKPRP,1.32
13,RRIRRRPPRLPRPRPRPKRYPRP,0.00167
14,RRIRTRPPRLPRPRPRPWDVPRP,-0.092
15,RRIRKRPPRLPRPRPRPVPIPRP,0.177
16,RRIRFRPPRLPRPRPRPWDWPRP,0.149
17,RRIRDRPPRLPRPRPRPVSSPRP,-0.0849
18,RRIRFRPPRLPRPRPRPRLLPRP,0.342
19,RRIRARPPRLPRPRPRPMQRPRP,0.383
20,RRIRPRPPRLPRPRPRPDSQPRP,-0.127
21,RRIRIRPPRLPRPRPRPEAFPRP,0.0813
22,RRIRLRPPRLPRPRPRPWVLPRP,-0.0289
23,RRIRDRPPRLPRPRPRPKKTPRP,-0.0142
24,RRIRCRPPRLPRPRPRPLLLPRP,-0.265
25,RRIRNRPPRLPRPRPRPRWHPRP,-0.114

row,Sequence,shrunken log2 fold change
1,RRIRDRPPRLPRPRPRPKQCPRP,0.101
2,RRIRRRPPRLPRPRPRPAVRPRP,0.0847
3,RRIRLRPPRLPRPRPRPFAPPRP,0.263
4,RRIRWRPPRLPRPRPRPPHRPRP,0.321
5,RRIRMRPPRLPRPRPRPVSNPRP,0.499
6,RRIRFRPPRLPRPRPRPQHMPRP,-0.615
7,RRIRNRPPRLPRPRPRPFNTPRP,-0.765
8,RRIRERPPRLPRPRPRPTYTPRP,-0.756
9,RRIRYRPPRLPRPRPRPFFWPRP,-0.03
10,RRIRPRPPRLPRPRPRPGSHPRP,0.142
11,RRIRSRPPRLPRPRPRPCNGPRP,-0.0821
12,RRIRSRPPRLPRPRPRPMYYPRP,-0.468
13,RRIRGRPPRLPRPRPRPYDVPRP,-0.00115
14,RRIRWRPPRLPRPRPRPWCFPRP,-0.0366
15,RRIRMRPPRLPRPRPRPGSTPRP,0.292
16,RRIRCRPPRLPRPRPRPRGTPRP,0.0528
17,RRIRVRPPRLPRPRPRPGHCPRP,0.258
18,RRIRHRPPRLPRPRPRPPAEPRP,0.0536
19,RRIRIRPPRLPRPRPRPNMFPRP,-0.394
20,RRIRFRPPRLPRPRPRPVYPPRP,-0.477
21,RRIRYRPPRLPRPRPRPWACPRP,-0.263
22,RRIRFRPPRLPRPRPRPHMRPRP,-0.0696
23,RRIRYRPPRLPRPRPRPTNCPRP,-1.27
24,RRIRRRPPRLPRPRPRPFQKPRP,-0.0282
25,RRIRSRPPRLPRPRPRPLGAPRP,0.295

row,Sequence,shrunken log2 fold change
1,RRIRFRPPRLPRPRPRPWAAPRP,0.385
2,RRIRFRPPRLPRPRPRPKPKPRP,0.848
3,RRIRFRPPRLPRPRPRPDADPRP,0.386
4,RRIRPRPPRLPRPRPRPEIVPRP,0.0303
5,RRIRGRPPRLPRPRPRPTQPPRP,1.12
6,RRIRRRPPRLPRPRPRPAQQPRP,0.938
7,RRIRLRPPRLPRPRPRPACSPRP,0.0854
8,RRIRHRPPRLPRPRPRPYKPPRP,-0.466
9,RRIRNRPPRLPRPRPRPTLDPRP,0.221
10,RRIRSRPPRLPRPRPRPLNTPRP,-0.563
11,RRIRKRPPRLPRPRPRPECEPRP,0.0869
12,RRIRHRPPRLPRPRPRPAFAPRP,0.278
13,RRIRERPPRLPRPRPRPMTPPRP,-0.0365
14,RRIRSRPPRLPRPRPRPTYDPRP,-0.262
15,RRIRYRPPRLPRPRPRPEHFPRP,-0.0545
16,RRIRVRPPRLPRPRPRPKVAPRP,0.12
17,RRIRTRPPRLPRPRPRPDAKPRP,0.395
18,RRIRNRPPRLPRPRPRPIYGPRP,-0.224
19,RRIRLRPPRLPRPRPRPGKYPRP,-0.282
20,RRIRDRPPRLPRPRPRPCGYPRP,0.0572
21,RRIRWRPPRLPRPRPRPEYKPRP,0.472
22,RRIRMRPPRLPRPRPRPIYDPRP,-0.265
23,RRIRIRPPRLPRPRPRPGCDPRP,0.0474
24,RRIRQRPPRLPRPRPRPFHIPRP,-1.55
25,RRIRIRPPRLPRPRPRPTWTPRP,0.398

row,Sequence,shrunken log2 fold change
1,RRIRLRPPRLPRPRPRPFQAPRP,0.0248
2,RRIRWRPPRLPRPRPRPMHRPRP,-0.0497
3,RRIRVRPPRLPRPRPRPTGGPRP,0.18
4,RRIRPRPPRLPRPRPRPPIQPRP,0.00728
5,RRIRHRPPRLPRPRPRPAWEPRP,0.421
6,RRIRTRPPRLPRPRPRPDTLPRP,0.00154
7,RRIRLRPPRLPRPRPRPIMCPRP,0.02
8,RRIRTRPPRLPRPRPRPLFSPRP,-0.717
9,RRIRTRPPRLPRPRPRPIPTPRP,-0.606
10,RRIRMRPPRLPRPRPRPIDIPRP,0.476
11,RRIRYRPPRLPRPRPRPYYYPRP,-0.476
12,RRIRKRPPRLPRPRPRPTVGPRP,0.197
13,RRIRMRPPRLPRPRPRPTSDPRP,0.055
14,RRIRPRPPRLPRPRPRPVSNPRP,-0.622
15,RRIRGRPPRLPRPRPRPYIAPRP,-0.391
16,RRIRTRPPRLPRPRPRPWLQPRP,-0.187
17,RRIRVRPPRLPRPRPRPNSCPRP,-0.394
18,RRIRRRPPRLPRPRPRPPSPPRP,0.875
19,RRIRLRPPRLPRPRPRPQMRPRP,0.64
20,RRIRIRPPRLPRPRPRPKMFPRP,0.0072
21,RRIRPRPPRLPRPRPRPMSFPRP,-0.0289
22,RRIRLRPPRLPRPRPRPSLIPRP,-0.217
23,RRIRQRPPRLPRPRPRPLMFPRP,-0.137
24,RRIRRRPPRLPRPRPRPNQMPRP,0.388
25,RRIRRRPPRLPRPRPRPACAPRP,0.727

row,Sequence,shrunken log2 fold change
1,RRIRPRPPRLPRPRPRPKVKPRP,-0.236
2,RRIRNRPPRLPRPRPRPTKDPRP,-0.197
3,RRIRERPPRLPRPRPRPPASPRP,0.127
4,RRIRARPPRLPRPRPRPHEQPRP,0.257
5,RRIRCRPPRLPRPRPRPGWCPRP,-0.0717
6,RRIRGRPPRLPRPRPRPMTQPRP,0.28
7,RRIRYRPPRLPRPRPRPLWNPRP,-0.471
8,RRIRRRPPRLPRPRPRPAWCPRP,0.568
9,RRIRQRPPRLPRPRPRPIMAPRP,-0.0123
10,RRIRNRPPRLPRPRPRPQCSPRP,-0.148
11,RRIRHRPPRLPRPRPRPKWYPRP,-0.462
12,RRIRLRPPRLPRPRPRPNTLPRP,-0.136
13,RRIRYRPPRLPRPRPRPGKMPRP,0.00758
14,RRIRYRPPRLPRPRPRPDAVPRP,-0.365
15,RRIRYRPPRLPRPRPRPDIYPRP,0.0393
16,RRIRPRPPRLPRPRPRPVFNPRP,-0.344
17,RRIRLRPPRLPRPRPRPPSNPRP,0.00215
18,RRIRMRPPRLPRPRPRPMFGPRP,0.0113
19,RRIRYRPPRLPRPRPRPLRKPRP,-0.258
20,RRIRLRPPRLPRPRPRPWICPRP,-0.213
21,RRIRPRPPRLPRPRPRPWSSPRP,-0.977
22,RRIRDRPPRLPRPRPRPQCVPRP,0.0602
23,RRIRLRPPRLPRPRPRPMDWPRP,-0.0759
24,RRIRMRPPRLPRPRPRPSPLPRP,0.302
25,RRIRSRPPRLPRPRPRPTDEPRP,-0.148
